Assay [1] concerns the target pTau181标准品. The assay can be described thus: bead sandwich flow cytometry; Tau-2 on beads as capture, PE-labelled anti-pTau181 antibody as detector, 5μg/mL pTau181 standard.
Assay [2] has as its target pTau181标准品. The assay can be described thus: bead sandwich flow cytometry; Tau-3 on beads as capture, PE-labelled anti-pTau181 antibody as detector, 5μg/mL pTau181 standard.

B1: 实施例3纯化后的重组抗体(重组抗pTau181单克隆抗体) (antibody, mouse IgG1, kappa, V domains shown)
VH: LQQPGSEYARPGASVKLSCKASGYTFTSYWMHWVKQRHGQLLEWIGNIYPGSGSSNYDEKFKSKGTLTVDTSSSTAYMHLSSLTSEDSAVYYCTRSGWLLRDYAMDYWGQGTSVTVSS
VL: DVLMTQTPLSLPVSLGDQASISCRSSQSIVHSNGNTYLEWYLQKPGQSPKLLIYKVSTRFSGVPDRFSGSGSGTDFTLKISRVEAEDLGVYYCFQGSHVPYTFGGGTKLEIKA
modifications: 在实施例4中偶联藻红蛋白荧光素(方案1)或偶联微球(方案2)
Take B1: the values for the 荧光信号强度 with pTau181标准品 [1] and with pTau181标准品 [2] were 343000 and 420000, respectively.

These data come from patent publication CN117866087A.
